# Patent US12427210B2 (3B PHARMACEUTICALS GMBH, dated 2025)
# B1: Hex-[Cys(tMeBn(DOTA-AET))-Pro-Pro-Thr-Gln-Phe-Cys]-OH (3BP-3554) (peptide)
# peptide: CPPTQFC
# modifications: N-terminal hexanoyl (Hex); Cys1 and Cys7 cyclised through tMeBn carrying DOTA-AET; free C-terminal acid (-OH)
# B2: Hex-[Cys(tMeBn(LuDOTA-AET))-Pro-Pro-Thr-Gln-Phe-Cys]-OH (3BP-3624) (peptide)
# peptide: CPPTQFC
# modifications: N-terminal hexanoyl (Hex); Cys1 and Cys7 cyclised through tMeBn carrying LuDOTA-AET (lutetium complex); free C-terminal acid (-OH)
# B3: Hex-[Cys(tMeBn(GaDOTA-PP))-Pro-Pro-Thr-Gln-Phe-Cys]-Asp-NH2 (3BP-3592) (peptide)
# peptide: CPPTQFCD
# modifications: N-terminal hexanoyl (Hex); Cys1 and Cys7 cyclised through tMeBn carrying GaDOTA-PP (gallium complex); C-terminal amide
# B4: Hex-[Cys(tMeBn(GaDOTA-AET))-Pro-Pro-Thr-Gln-Phe-Cys]-OH (3BP-3949) (peptide)
# peptide: CPPTQFC
# modifications: N-terminal hexanoyl (Hex); Cys1 and Cys7 cyclised through tMeBn carrying GaDOTA-AET (gallium complex); free C-terminal acid (-OH)
# B5: Hex-[Cys(tMeBn(InDOTA-AET))-Pro-Pro-Thr-Gln-Phe-Cys]-OH (3BP-3623) (peptide)
# peptide: CPPTQFC
# modifications: N-terminal hexanoyl (Hex); Cys1 and Cys7 cyclised through tMeBn carrying InDOTA-AET (indium complex); free C-terminal acid (-OH)
# B6: Hex-[Cys(tMeBn(LuDOTA-PP))-Pro-Pro-Thr-Gln-Phe-Cys]-Asp-NH2 (3BP-3591) (peptide)
# peptide: CPPTQFCD
# modifications: N-terminal hexanoyl (Hex); Cys1 and Cys7 cyclised through tMeBn carrying LuDOTA-PP (lutetium complex); C-terminal amide
# B7: Hex-[Cys(tMeBn(DOTA-PP))-Pro-Pro-Thr-Gln-Phe-Cys]-Asp-NH2 (3BP-3407) (peptide)
# peptide: CPPTQFCD
# modifications: N-terminal hexanoyl (Hex); Cys1 and Cys7 cyclised through tMeBn carrying DOTA-PP; C-terminal amide
# B8: Hex-[Cys(tMeBn(InDOTA-PP))-Pro-Pro-Thr-Gln-Phe-Cys]-Asp-NH2 (3BP-3590) (peptide)
# peptide: CPPTQFCD
# modifications: N-terminal hexanoyl (Hex); Cys1 and Cys7 cyclised through tMeBn carrying InDOTA-PP (indium complex); C-terminal amide
# B9: Hex-[Cys(tMeBn(EuDOTA-PP))-Pro-Pro-Thr-Gln-Phe-Cys]-Asp-NH2 (3BP-3661) (peptide)
# peptide: CPPTQFCD
# modifications: N-terminal hexanoyl (Hex); Cys1 and Cys7 cyclised through tMeBn carrying EuDOTA-PP (europium complex); C-terminal amide
# Target: Recombinant human FAP (R&D systems, #3715-SE) (human)
# Sequence (chain, as listed by the source limits assumed): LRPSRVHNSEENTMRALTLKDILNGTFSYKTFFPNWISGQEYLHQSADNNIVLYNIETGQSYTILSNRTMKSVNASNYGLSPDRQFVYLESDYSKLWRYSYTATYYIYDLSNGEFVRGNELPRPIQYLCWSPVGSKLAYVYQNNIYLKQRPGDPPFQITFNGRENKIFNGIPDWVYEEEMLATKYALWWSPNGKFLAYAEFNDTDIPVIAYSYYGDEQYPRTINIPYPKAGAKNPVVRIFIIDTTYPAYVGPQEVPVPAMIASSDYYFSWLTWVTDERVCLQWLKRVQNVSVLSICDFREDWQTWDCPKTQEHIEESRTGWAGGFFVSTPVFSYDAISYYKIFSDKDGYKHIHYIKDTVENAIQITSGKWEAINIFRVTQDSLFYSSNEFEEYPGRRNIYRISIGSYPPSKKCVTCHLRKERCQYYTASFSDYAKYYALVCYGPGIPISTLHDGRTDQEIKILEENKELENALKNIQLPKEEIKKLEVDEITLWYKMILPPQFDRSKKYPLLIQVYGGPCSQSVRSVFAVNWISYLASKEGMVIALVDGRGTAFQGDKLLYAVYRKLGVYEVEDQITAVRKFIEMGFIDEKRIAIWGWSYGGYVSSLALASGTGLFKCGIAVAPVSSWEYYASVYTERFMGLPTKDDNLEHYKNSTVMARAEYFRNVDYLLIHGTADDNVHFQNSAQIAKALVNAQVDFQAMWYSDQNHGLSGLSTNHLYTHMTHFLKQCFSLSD
# Assay: SPR (Biacore T200), rhFAP captured by anti-FAP antibody, single cycle kinetics; category A = pKD values >8.0
row,Binder,pKD Category
1,B1,> 8 pKD
2,B2,> 8 pKD
3,B3,> 8 pKD
4,B4,> 8 pKD
5,B5,> 8 pKD
6,B6,> 8 pKD
7,B7,> 8 pKD
8,B8,> 8 pKD

# Target: human fibroblast activation protein (FAP) on human WI-38 fibroblasts (human)
# Assay: competitive FACS binding on FAP-expressing WI-38 cells against 3 nM Cy5-labeled compound; category A = pIC50 values >8.0
row,Binder,pIC50 Category (FACS)
1,B9,> 8 pIC50
2,B3,> 8 pIC50
3,B6,> 8 pIC50
4,B7,> 8 pIC50
5,B8,> 8 pIC50
